Data reported in patent US20240132578A1.

Legend:
Experiment in all cases: cell-based or functional assay
[1] = molecular target: HIV-1 92RW021 envelope glycoprotein (Env) on pseudovirus (HIV-1 (clade A))
[2] = molecular target: HIV-1 CMU02 Env (pseudovirus) (HIV-1)
[3] = molecular target: HIV-1 CMU02 envelope (Env) on pseudovirus (HIV-1)
[4] = molecular target: HIV-1 Env of isolate 92UG024 (clade D pseudovirus) (HIV-1)
[5] = molecular target: HIV-1 Env of isolate 93IN905 (Clade C) (HIV-1)
[6] = molecular target: HIV-1 Env of isolate VLGCB3, clade B (HIV-1)
[7] = molecular target: HIV-1 Env of pseudovirus MGRM-F1-021 (clade F) (HIV-1)
[8] = molecular target: HIV-1 Env of pseudovirus MGRM-G-013 (HIV-1)
[9] = molecular target: HIV-1 Env of pseudovirus MGRM-G-014 (HIV-1)
[10] = molecular target: HIV-1 IAVI-C22 envelope (Env) on pseudovirus (HIV-1)
[11] = molecular target: HIV-1 MGRM-AE-006 Env (pseudovirus) (HIV-1)
[12] = molecular target: HIV-1 MGRM-AG-005 Env (pseudovirus) (HIV-1)
[13] = molecular target: HIV-1 MGRM-AG-006 Env (pseudovirus) (HIV-1)
[14] = molecular target: HIV-1 MGRM-AG-009 Env (pseudovirus) (HIV-1)
[15] = molecular target: HIV-1 envelope glycoprotein (Env) of isolate MGRM-C-025 (HIV-1)
[16] = molecular target: HIV-1 92BR020 Env (HIV-1)
[17] = molecular target: HIV-1 Env of isolate 92UG024 (HIV-1)
[18] = molecular target: HIV-1 Env of isolate MG RM-A-013 (pseudovirus) (HIV-1)
[19] = molecular target: HIV-1 Env of isolate MGRM-G-011 (subtype G) (HIV-1)
[20] = molecular target: HIV-1 Env of isolate MGRM-G-024 (subtype G) (HIV-1)
[21] = molecular target: HIV-1 Env of pseudovirus isolate APV-13 (clade B) (HIV-1)
[22] = molecular target: HIV-1 Env of pseudovirus isolate MGRM-Chronic-B-004 (clade B) (HIV-1)
[23] = molecular target: HIV-1 Env of isolate 92UG114 (pseudovirus) (HIV-1)
[24] = molecular target: HIV-1 Env of isolate 94KE105 (subtype AC) (HIV-1)
[25] = molecular target: HIV-1 Env of isolate 98CN009 (pseudovirus) (HIV-1)
[26] = molecular target: HIV-1 Env of isolate MGRM-A-002 (pseudovirus) (HIV-1)
[27] = molecular target: HIV-1 Env of isolate MGRM-D-016 (pseudovirus) (HIV-1)
[28] = molecular target: HIV-1 Env of isolate MGRM-F1-012 (HIV-1)
[29] = molecular target: HIV-1 Env of isolate VLGCA1 (subtype A) (HIV-1)
[30] = molecular target: HIV-1 Env of pseudovirus isolate MGRM-C-025 (clade C) (HIV-1)
[31] = molecular target: HIV-1 JR-CSF Env I415A (HIV-1 (isolate JR-CSF)) (UniProt P20871)
[32] = molecular target: HIV-1 JR-CSF Env I420A (HIV-1 (isolate JR-CSF)) (UniProt P20871)
[33] = molecular target: HIV-1 JR-CSF Env S393A (HIV-1 (isolate JR-CSF)) (UniProt P20871)
[34] = molecular target: HIV-1 Env of pseudovirus MGRM-D-021 (HIV-1)
[35] = molecular target: HIV-1 Env of pseudovirus MGRM-F1-022 (HIV-1)
[36] = molecular target: HIV-1 envelope glycoprotein (Env) of isolate MG RM-AG-005 (HIV-1)
[37] = molecular target: HIV-1 envelope glycoprotein (Env) of isolate MG RM-AG-012 (HIV-1)

Substance | IC50, pseudovirus neutralization [16] | IC50 (µg/mL), pseudovirus neutralization [17] | IC50 (µg/mL), single-round pseudovirus neutralization [18] | IC50 (µg/mL), pseudovirus neutralization [19] | IC50 (µg/mL), pseudovirus neutralization [20] | IC50, pseudovirus neutralization [21] | IC50, pseudovirus neutralization [22] | IC50 (µg/mL), pseudovirus neutralization [23] | IC50, pseudovirus neutralization [24] | IC50 (µg/mL), pseudovirus neutralization [25] | IC50 (µg/mL), pseudovirus neutralization [26] | IC50 (µg/mL), pseudovirus neutralization [27] | IC50 (µg/mL), pseudovirus neutralization [28] | IC50, pseudovirus neutralization [29] | IC50, pseudovirus neutralization [30] | IC50, pseudovirus neutralization [34] | IC50, pseudovirus neutralization [35] | IC50 [36] | IC50 [37] | also measured
2F5 (antibody) |  |  |  |  |  |  |  |  |  |  |  |  |  |  |  |  |  |  |  | IC50 (µg/ml), pseudovirus neutralization [1]: 4.16 µg/mL; IC50 (µg/ml), pseudovirus neutralization [2]: 0.6 µg/mL; neutralization IC50 [3]: 0.38 µg/mL; IC50, pseudovirus neutralization [4]: 0.95 µg/mL; IC90 (neutralization of pseudovirus) [5]: > 50 µg/mL; IC50 (µg/ml), pseudovirus neutralization [6]: > 50 µg/mL; IC50 [7]: 1.37 µg/mL; IC50 (µg/ml), pseudovirus neutralization [8]: 0.59 µg/mL; IC50 (µg/ml), pseudovirus neutralization [9]: 9.65 µg/mL; neutralization IC50 [10]: > 50 µg/mL; IC50 (µg/ml), pseudovirus neutralization [11]: 0.18 µg/mL; IC50 (µg/ml), pseudovirus neutralization [12]: > 50 µg/mL; IC50 (µg/ml), pseudovirus neutralization [13]: 0.85 µg/mL; IC50 (µg/ml), pseudovirus neutralization [14]: 24.8 µg/mL; IC50 (µg/ml), pseudovirus neutralization [15]: > 50 µg/mL
2G12 (antibody) |  |  |  |  |  |  |  |  |  |  |  |  |  |  |  |  |  |  |  | IC50 (µg/ml), pseudovirus neutralization [1]: > 50 µg/mL; IC50 (µg/ml), pseudovirus neutralization [2]: > 50 µg/mL; neutralization IC50 [3]: > 50 µg/mL; IC50, pseudovirus neutralization [4]: 0.42 µg/mL; IC90 (neutralization of pseudovirus) [5]: > 50 µg/mL; IC50 (µg/ml), pseudovirus neutralization [6]: 7.9 µg/mL; IC50 [7]: 14.1 µg/mL; IC50 (µg/ml), pseudovirus neutralization [8]: > 50 µg/mL; IC50 (µg/ml), pseudovirus neutralization [9]: > 50 µg/mL; neutralization IC50 [10]: > 50 µg/mL; IC50 (µg/ml), pseudovirus neutralization [11]: > 50 µg/mL; IC50 (µg/ml), pseudovirus neutralization [12]: > 50 µg/mL; IC50 (µg/ml), pseudovirus neutralization [13]: 3.92 µg/mL; IC50 (µg/ml), pseudovirus neutralization [14]: > 50 µg/mL; IC50 (µg/ml), pseudovirus neutralization [15]: > 50 µg/mL
1495_C14 (PGC14) (antibody) |  |  |  |  |  |  |  |  |  |  |  |  |  |  |  |  |  |  |  | IC50 (µg/ml), pseudovirus neutralization [1]: > 50 µg/mL; IC50 (µg/ml), pseudovirus neutralization [2]: > 50 µg/mL; neutralization IC50 [3]: > 50 µg/mL; IC50, pseudovirus neutralization [4]: > 50 µg/mL; IC50 (µg/ml), pseudovirus neutralization [6]: 21 µg/mL; IC50 [7]: 46 µg/mL; IC50 (µg/ml), pseudovirus neutralization [8]: > 50 µg/mL; IC50 (µg/ml), pseudovirus neutralization [9]: > 50 µg/mL; neutralization IC50 [10]: 9.5 µg/mL; IC50 (µg/ml), pseudovirus neutralization [11]: > 50 µg/mL; IC50 (µg/ml), pseudovirus neutralization [12]: > 50 µg/mL; IC50 (µg/ml), pseudovirus neutralization [13]: > 50 µg/mL; IC50 (µg/ml), pseudovirus neutralization [14]: > 50 µg/mL; IC50 (µg/ml), pseudovirus neutralization [15]: > 50 µg/mL
4970_K22 (PGT-144) (antibody) | > 10 µg/mL | > 50 µg/mL | > 50 µg/mL | 1.58 µg/mL | 7.92 µg/mL | > 50 µg/mL | 9.41 µg/mL |  |  |  |  |  |  |  |  |  |  |  |  | 
4980_N08 (PGT-143) (antibody) | > 10 µg/mL | > 50 µg/mL | 9.24 µg/mL | 0.074 µg/mL | 0.048 µg/mL | > 50 µg/mL | 0.395 µg/mL |  |  |  |  |  |  |  |  |  |  |  |  | 
4993_K13 (PGT-141) (antibody) | > 10 µg/mL | > 50 µg/mL | 9.86 µg/mL | 0.086 µg/mL | 0.051 µg/mL | > 50 µg/mL | 0.586 µg/mL |  |  |  |  |  |  |  |  |  |  |  |  | 
4995_E20 (PGT-142) (antibody) | > 10 µg/mL | > 50 µg/mL | 3.77 µg/mL | 0.046 µg/mL | 0.054 µg/mL | > 50 µg/mL | 0.172 µg/mL |  |  |  |  |  |  |  |  |  |  |  |  | 
4995_P16 (PGT-145) (antibody) |  | 1.6 µg/mL | 1.76 µg/mL | 0.028 µg/mL | 0.06 µg/mL | 0.337 µg/mL | 0.023 µg/mL |  |  |  |  |  |  |  |  |  |  |  |  | 
5114_A19 (PGT-128) (antibody) |  |  |  |  |  |  |  | 0.083 µg/mL | 0.007 µg/mL | 0.025 µg/mL | 0.149 µg/mL | > 50 µg/mL | 0.007 µg/mL | 0.838 µg/mL | 10.5 µg/mL |  |  |  |  | Fold IC50 increase relative to wild-type (pseudovirus neutralization) [31]: 0.7 fold; Fold IC50 increase relative to wild-type (pseudovirus neutralization) [32]: 0.8 fold; Fold IC50 increase relative to wild-type (pseudovirus neutralization) [33]: 1.4 fold
5136_H01 (PGT-131) (antibody) |  |  |  |  |  |  |  | > 50 µg/mL | 0.013 µg/mL | 4.05 µg/mL | > 50 µg/mL | > 50 µg/mL | > 50 µg/mL | > 50 µg/mL | > 50 µg/mL |  |  |  |  | Fold IC50 increase relative to wild-type (pseudovirus neutralization) [31]: 0.6 fold; Fold IC50 increase relative to wild-type (pseudovirus neutralization) [32]: 153 fold; Fold IC50 increase relative to wild-type (pseudovirus neutralization) [33]: 1.1 fold
5147_N06 (PGT-130) (antibody) | 1.12 µg/mL |  |  |  |  |  |  | > 50 µg/mL | 0.004 µg/mL | 0.136 µg/mL | 0.01 µg/mL | > 50 µg/mL | > 50 µg/mL | > 50 µg/mL | > 50 µg/mL |  |  |  |  | Fold IC50 increase relative to wild-type (pseudovirus neutralization) [31]: 0.6 fold; Fold IC50 increase relative to wild-type (pseudovirus neutralization) [32]: 9.8 fold; Fold IC50 increase relative to wild-type (pseudovirus neutralization) [33]: 0.7 fold
5329_C19 (PGT-136) (antibody) | > 10 µg/mL |  |  |  |  |  |  | > 50 µg/mL | > 50 µg/mL | 0.428 µg/mL | > 50 µg/mL | > 50 µg/mL | > 50 µg/mL | > 50 µg/mL | > 50 µg/mL |  |  |  |  | 
5343_B08 (PGT-135) (antibody) | 0.104 µg/mL |  |  |  |  |  |  | 1.29 µg/mL | 0.063 µg/mL | 0.071 µg/mL | > 50 µg/mL | > 50 µg/mL | 0.01 µg/mL | > 50 µg/mL | > 50 µg/mL |  |  |  |  | Fold IC50 increase relative to wild-type (pseudovirus neutralization) [31]: 5 fold; Fold IC50 increase relative to wild-type (pseudovirus neutralization) [32]: 1.4 fold; Fold IC50 increase relative to wild-type (pseudovirus neutralization) [33]: 0.9 fold
5345_I01 (PGT-137) (antibody) |  |  |  |  |  |  |  | > 50 µg/mL | 18.5 µg/mL | 5.06 µg/mL | > 50 µg/mL | > 50 µg/mL | > 50 µg/mL | > 50 µg/mL | > 50 µg/mL |  |  |  |  | 
PGT-141 (4964_G22; 4993_K13) (antibody) |  |  |  |  |  |  |  |  |  |  |  |  |  |  |  | > 50 µg/mL | 0.114 µg/mL | 0.497 µg/mL | > 50 µg/mL | 
PGT-142 (4995_E20) (antibody) |  |  |  |  |  |  |  |  |  |  |  |  |  |  |  | > 50 µg/mL | 0.04 µg/mL | 0.383 µg/mL | > 50 µg/mL | 
PGT-143 (4980_N08) (antibody) |  |  |  |  |  |  |  |  |  |  |  |  |  |  |  | > 50 µg/mL | 0.082 µg/mL | 1.11 µg/mL | > 50 µg/mL | 
PGT-144 (4970_K22) (antibody) |  |  |  |  |  |  |  |  |  |  |  |  |  |  |  | > 50 µg/mL | 0.382 µg/mL | > 50 µg/mL | > 50 µg/mL | 
PGT-145 (4995_P16) (antibody) |  |  |  |  |  |  |  |  |  |  |  |  |  |  |  | > 50 µg/mL | 0.009 µg/mL | 0.045 µg/mL | > 50 µg/mL | 
VRC01 (antibody) |  | 0.576 µg/mL | 0.152 µg/mL | 0.065 µg/mL | 0.025 µg/mL | 0.657 µg/mL | 0.055 µg/mL |  |  |  |  |  |  |  |  | 33.4 µg/mL | 0.055 µg/mL | 0.091 µg/mL | 0.031 µg/mL | 
